What was measured:
Assay in all cases: cell-based or functional assay
[1] = target: HIV-1 92RW024 envelope glycoprotein (Env) on pseudovirus (HIV-1 (clade A))
[2] = target: HIV-1 Env of isolate 92RW026 (clade A pseudovirus) (HIV-1)
[3] = target: HIV-1 Env of isolate 94UG103 (clade A pseudovirus) (HIV-1)
[4] = target: HIV-1 Env of isolate MGRM-A-001 (clade A pseudovirus) (HIV-1)
[5] = target: HIV-1 Env of isolate MGRM-A-013 (clade A pseudovirus) (HIV-1)
[6] = target: HIV-1 Env of isolate MGRM-D-011 (clade D pseudovirus) (HIV-1)
[7] = target: HIV-1 Env of isolate MGRM-D-022 (clade D pseudovirus) (HIV-1)
[8] = target: HIV-1 Env of isolate TRJ0.58 (Acute), clade B (HIV-1)
[9] = target: HIV-1 Env of isolate TRO.11 (Acute), clade B (HIV-1)
[10] = target: HIV-1 Env of pseudovirus MGRM-F1-006 (clade F) (HIV-1)
[11] = target: HIV-1 Env of pseudovirus MGRM-G-028 (HIV-1)
[12] = target: HIV-1 VLGCA1 envelope glycoprotein (Env) on pseudovirus (HIV-1 (clade A))
[13] = target: HIV-1 envelope glycoprotein (Env) of isolate MGRM-C-006 (HIV-1)
[14] = target: HIV-1 envelope glycoprotein (Env) of isolate MGRM-C-007 (HIV-1)
[15] = target: HIV-1 Env of isolate MGRM-AE-001 (pseudovirus) (HIV-1)
[16] = target: HIV-1 Env of isolate MGRM-AG-012 (pseudovirus) (HIV-1)
[17] = target: HIV-1 Env of isolate MGRM-G-006 (subtype G) (HIV-1)
[18] = target: HIV-1 CMU02 envelope protein (Env) on pseudovirus (HIV-1)
[19] = target: HIV-1 Env of isolate MGRM-F1-017 (pseudovirus) (HIV-1)
[20] = target: HIV-1 Env of isolate MGRM-F1-018 (pseudovirus) (HIV-1)
[21] = target: HIV-1 envelope glycoprotein (Env) of isolate 92WR024, subtype A (HIV-1)
[22] = target: HIV-1 envelope glycoprotein (Env) of isolate APV_13, on pseudovirus (HIV-1)
[23] = target: HIV-1 envelope glycoprotein (Env) of isolate APV_6, on pseudovirus (HIV-1)
[24] = target: HIV-1 envelope glycoprotein (Env) of isolate MG RM-A-011, subtype A (HIV-1)
[25] = target: HIV-1 envelope glycoprotein (Env) of isolate MG RM-A-014, subtype A (HIV-1)
[26] = target: HIV-1 envelope glycoprotein (Env) of isolate MGRM-AE-001, subtype AE (HIV-1)
[27] = target: HIV-1 envelope glycoprotein (Env) of isolate MGRM-Chronic-B-003, on pseudovirus (HIV-1)
[28] = target: HIV-1 envelope glycoprotein (Env) of isolate MGRM-Chronic-B-023, on pseudovirus (HIV-1)
[29] = target: aMLV envelope protein on pseudovirus (negative control)
[30] = target: HIV-1 JR-CSF Env R419A (HIV-1 (isolate JR-CSF)) (UniProt P20871)
[31] = target: HIV-1 Env of isolate MGRM-F1-022 (HIV-1)
[32] = target: HIV-1 Env of isolate MGRM-F1-023 (HIV-1)

Sequence of 1443_C16 (PG16) (TCN-116) (antibody) (VH): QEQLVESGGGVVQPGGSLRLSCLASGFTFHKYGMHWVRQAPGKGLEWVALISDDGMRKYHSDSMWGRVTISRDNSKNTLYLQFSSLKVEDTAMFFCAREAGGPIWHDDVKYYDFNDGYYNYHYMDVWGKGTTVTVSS
Sequence of 1443_C16 (PG16) (TCN-116) (antibody) (VL): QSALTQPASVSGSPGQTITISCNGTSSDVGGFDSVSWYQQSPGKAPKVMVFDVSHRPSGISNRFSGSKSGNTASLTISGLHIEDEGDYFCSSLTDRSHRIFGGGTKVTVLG

Substance | IC50 (µg/ml), pseudovirus neutralization [1] [µg/mL] | IC50 (µg/ml), pseudovirus neutralization [2] [µg/mL] | IC50 (µg/ml), pseudovirus neutralization [3] [µg/mL] | IC50 (µg/ml), pseudovirus neutralization [4] [µg/mL] | IC50 (µg/ml), pseudovirus neutralization [5] [µg/mL] | IC50, pseudovirus neutralization [6] [µg/mL] | IC50, pseudovirus neutralization [7] [µg/mL] | IC50 (µg/ml), pseudovirus neutralization [8] [µg/mL] | IC50 (µg/ml), pseudovirus neutralization [9] [µg/mL] | IC50 [10] [µg/mL] | IC50 (µg/ml), pseudovirus neutralization [11] [µg/mL] | IC50 (µg/ml), pseudovirus neutralization [12] [µg/mL] | IC50 (µg/ml), pseudovirus neutralization [13] [µg/mL] | IC50 (µg/ml), pseudovirus neutralization [14] [µg/mL] | IC50 (µg/mL), pseudovirus neutralization [16] [µg/mL] | IC50 (µg/mL), pseudovirus neutralization [19] [µg/mL] | IC50 (µg/mL), pseudovirus neutralization [20] [µg/mL] | IC50, pseudovirus neutralization [21] [µg/mL] | IC50, pseudovirus neutralization [22] [µg/mL] | IC50, pseudovirus neutralization [23] [µg/mL] | other results
2F5 (antibody) | 8.22 | 8.63 | 1.92 | > 50 | 0.66 | > 50 | 8.45 | > 50 | > 50 | 1.1 | 2.24 | 3.9 | > 50 | > 50 |  |  |  |  |  |  | 
2G12 (antibody) | > 50 | 17.2 | 48.1 | > 50 | > 50 | 1.5 | > 50 | > 50 | 0.29 | > 50 | 28.2 | > 50 | > 50 | > 50 |  |  |  |  |  |  | 
4E10 (antibody) | 8.88 | 12.9 | 4.97 | 15.1 | 1.46 | 0.91 | 16.9 | 11.9 | 1.39 | 1.01 | 6.32 | 4.58 | 4.94 | 5.84 |  |  |  |  |  |  | 
1443_C16 (PG16) (TCN-116) (antibody) | 0.08 | 0.03 | 0.04 | > 50 | 0.09 | 0.01 | > 50 | 1.16 | 0.22 | 0.27 | 3.09 | 0.18 | 2.62 | 0.05 |  |  |  |  |  |  | 
1495_C14 (PGC14) (antibody) | > 50 | > 50 | > 50 | > 50 | > 50 | > 50 | > 50 | > 50 | > 50 | > 50 | > 50 | > 50 | > 50 | > 50 |  |  |  |  |  |  | 
1496_C09 (PG9) (TCN-109) (antibody) | 0.18 | 0.27 | 0.24 |  | 0.16 | 0.06 |  | 0.43 | 5.43 | 1.45 |  | 0.07 | 0.23 | 0.09 | 22.8 |  |  |  |  |  | IC50 (µg/mL), pseudovirus neutralization [15]: 20.6 µg/mL; IC50 (µg/mL), pseudovirus neutralization [17]: 1.98 µg/mL
4838_L06 (PGT-121) (antibody) |  |  |  |  |  |  |  |  |  |  |  |  |  |  |  | 16.9 | 0.04 | > 50 | 0.251 | 0.018 | IC50 (ug/mL), pseudovirus neutralization [18]: > 10 µg/mL; IC50, pseudovirus neutralization [24]: > 50 µg/mL; IC50, pseudovirus neutralization [25]: 0.003 µg/mL; IC50, pseudovirus neutralization [26]: > 50 µg/mL; IC50, pseudovirus neutralization [27]: 0.011 µg/mL; IC50, pseudovirus neutralization [28]: 0.005 µg/mL; IC50 (ug/mL), pseudovirus neutralization [29]: > 10 µg/mL
4858_P08 (PGT-123) (antibody) |  |  |  |  |  |  |  |  |  |  |  |  |  |  | > 50 | > 50 | 0.054 | > 50 | 0.138 | 0.023 | IC50 (ug/mL), pseudovirus neutralization [18]: > 10 µg/mL; Fold IC50 increase relative to wild-type (pseudovirus neutralization) [30]: 0.7 fold; IC50, pseudovirus neutralization [24]: > 50 µg/mL; IC50, pseudovirus neutralization [25]: 0.003 µg/mL; IC50, pseudovirus neutralization [26]: > 50 µg/mL; IC50, pseudovirus neutralization [27]: 0.008 µg/mL; IC50, pseudovirus neutralization [28]: 0.055 µg/mL; IC50 (ug/mL), pseudovirus neutralization [29]: > 10 µg/mL
4877_D15 (PGT-122) (antibody) |  |  |  |  |  |  |  |  |  |  |  |  |  |  | > 50 | > 50 | 0.563 | > 50 | 0.778 | 0.019 | IC50 (ug/mL), pseudovirus neutralization [18]: > 10 µg/mL; IC50, pseudovirus neutralization [24]: > 50 µg/mL; IC50, pseudovirus neutralization [25]: 0.007 µg/mL; IC50, pseudovirus neutralization [26]: > 50 µg/mL; IC50, pseudovirus neutralization [27]: 0.008 µg/mL; IC50, pseudovirus neutralization [28]: 0.01 µg/mL; IC50 (ug/mL), pseudovirus neutralization [29]: > 10 µg/mL
5123_A06 (PGT-125) (antibody) |  |  |  |  |  |  |  |  |  |  |  |  |  |  | > 50 | > 50 | > 50 | 35.5 | 0.007 | 0.021 | IC50 (ug/mL), pseudovirus neutralization [18]: > 10 µg/mL; Fold IC50 increase relative to wild-type (pseudovirus neutralization) [30]: 1 fold; IC50, pseudovirus neutralization [24]: > 50 µg/mL; IC50, pseudovirus neutralization [25]: 13.9 µg/mL; IC50, pseudovirus neutralization [26]: 2.95 µg/mL; IC50, pseudovirus neutralization [27]: 0.157 µg/mL; IC50, pseudovirus neutralization [28]: > 50 µg/mL; IC50 (ug/mL), pseudovirus neutralization [29]: > 10 µg/mL
5141_B17 (PGT-126) (antibody) |  |  |  |  |  |  |  |  |  |  |  |  |  |  | > 50 | > 50 | 14.9 | 42 | 0.012 | 0.007 | IC50 (ug/mL), pseudovirus neutralization [18]: > 10 µg/mL; Fold IC50 increase relative to wild-type (pseudovirus neutralization) [30]: 1.2 fold; IC50, pseudovirus neutralization [24]: > 50 µg/mL; IC50, pseudovirus neutralization [25]: 0.01 µg/mL; IC50, pseudovirus neutralization [26]: 9.68 µg/mL; IC50, pseudovirus neutralization [27]: 0.041 µg/mL; IC50, pseudovirus neutralization [28]: > 50 µg/mL; IC50 (ug/mL), pseudovirus neutralization [29]: > 10 µg/mL
5145_B14 (PGT-127) (antibody) |  |  |  |  |  |  |  |  |  |  |  |  |  |  | > 50 | > 50 | 3.59 | > 50 | 0.026 | 0.04 | Fold IC50 increase relative to wild-type (pseudovirus neutralization) [30]: 2.5 fold; IC50, pseudovirus neutralization [24]: > 50 µg/mL; IC50, pseudovirus neutralization [25]: 0.04 µg/mL; IC50, pseudovirus neutralization [26]: > 50 µg/mL; IC50, pseudovirus neutralization [27]: 0.12 µg/mL; IC50, pseudovirus neutralization [28]: > 50 µg/mL
PGV04 (antibody) |  |  |  |  |  |  |  |  |  |  |  |  |  |  | 0.04 |  |  |  |  |  | IC50 (µg/mL), pseudovirus neutralization [15]: 0.063 µg/mL; IC50 (µg/mL), pseudovirus neutralization [31]: 0.072 µg/mL; IC50 (µg/mL), pseudovirus neutralization [32]: 0.171 µg/mL; IC50 (µg/mL), pseudovirus neutralization [17]: 0.083 µg/mL
b12 (antibody) | > 50 | > 50 | 6.92 | > 50 | 7.04 | 7.75 | 17.6 | > 50 | > 50 | > 50 | > 50 | > 50 | > 50 | > 50 |  |  |  |  |  |  | 
